Experimental data as given in IntAct's records for PubMed 25083872.

B1: Vesicle-associated membrane protein-associated protein SCS2 (Saccharomyces cerevisiae), P40075 (parent)
chain: MSAVEISPDVLVYKSPLTEQSTEYASISNNSDQTIAFKVKTTAPKFYCVRPNAAVVAPGETIQVQVIFLGLTEEPAADFKCRDKFLVITLPSPYDLNGKAVADVWSDLEAEFKQQAISKKIKVKYLISPDVHPAQNQNIQENKETVEPVVQDSEPKEVPAVVNEKEVPAEPETQPPVQVKKEEVPPVVQKTVPHENEKQTSNSTPAPQNQIKEAATVPAENESSSMGIFILVALLILVLGWFYR
partner: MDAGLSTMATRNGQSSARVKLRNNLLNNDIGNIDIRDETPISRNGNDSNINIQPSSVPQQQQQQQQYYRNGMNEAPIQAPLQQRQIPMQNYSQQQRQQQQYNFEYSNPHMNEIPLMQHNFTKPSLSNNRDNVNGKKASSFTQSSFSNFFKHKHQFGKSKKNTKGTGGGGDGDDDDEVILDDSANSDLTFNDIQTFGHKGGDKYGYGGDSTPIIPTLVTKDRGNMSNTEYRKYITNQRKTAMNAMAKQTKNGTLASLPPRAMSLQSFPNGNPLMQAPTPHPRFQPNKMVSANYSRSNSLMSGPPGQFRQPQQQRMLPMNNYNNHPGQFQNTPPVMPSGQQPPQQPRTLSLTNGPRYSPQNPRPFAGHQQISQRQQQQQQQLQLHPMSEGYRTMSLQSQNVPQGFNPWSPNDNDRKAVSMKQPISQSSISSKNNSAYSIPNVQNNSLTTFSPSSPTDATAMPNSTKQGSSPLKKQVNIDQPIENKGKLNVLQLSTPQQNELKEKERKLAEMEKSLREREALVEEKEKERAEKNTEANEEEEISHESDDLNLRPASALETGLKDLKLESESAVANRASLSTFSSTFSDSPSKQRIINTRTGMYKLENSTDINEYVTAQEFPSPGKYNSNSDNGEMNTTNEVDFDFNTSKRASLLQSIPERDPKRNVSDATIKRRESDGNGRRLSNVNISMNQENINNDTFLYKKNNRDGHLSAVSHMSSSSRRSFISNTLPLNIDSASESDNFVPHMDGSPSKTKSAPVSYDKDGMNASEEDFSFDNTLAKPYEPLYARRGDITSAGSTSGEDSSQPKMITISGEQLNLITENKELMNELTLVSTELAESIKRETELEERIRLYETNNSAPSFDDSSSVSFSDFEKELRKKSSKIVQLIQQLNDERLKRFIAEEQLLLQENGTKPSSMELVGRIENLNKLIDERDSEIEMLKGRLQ

Variants of: B1
Settings: with ym11_yeast ym11, P39523

| effect of a mutation on the interaction | Variant |
| --- | --- |
| disrupting interaction strength | T42A |
